Assay [1] has as its target T1, human recombinant IL18R alpha/IL-1 R5/Fc (human, UniProt Q13478 19-329, limits assumed).
T1 construct: Bought; also called IL18R alpha Fc; not shown: Fc of the bought fusion protein, not described
T1 sequence (looked up): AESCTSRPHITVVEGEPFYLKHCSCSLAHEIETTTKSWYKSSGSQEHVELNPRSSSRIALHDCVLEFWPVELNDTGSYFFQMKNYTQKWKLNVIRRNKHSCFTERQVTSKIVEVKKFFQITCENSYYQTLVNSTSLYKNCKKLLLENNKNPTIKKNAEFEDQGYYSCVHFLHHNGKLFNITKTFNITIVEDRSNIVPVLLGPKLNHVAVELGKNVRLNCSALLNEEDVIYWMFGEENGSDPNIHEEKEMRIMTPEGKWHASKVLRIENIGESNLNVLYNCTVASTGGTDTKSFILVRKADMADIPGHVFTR
Description: DELFIA epitope competition; no inhibition of biotinylated huIL-1RFc binding to the adsorbed IgG. The protocol: (§1) Titrations of non biotinylated purified human recombinant IL1sRII (R&D Systems), human recombinant IL-1R6/IL1 R rpt/Fc (R&D Systems), human recombinant IL18R alpha/IL-1 R5/Fc (R&D systems) and recombinant human IL-1 R4 (ST2)/Fc (R&D systems) were tested in each assay to establish the potency for each structurally related family member, as measured by IC₅₀ values in the assay.
(§2) Purified IgG were adsorbed onto 96-well Maxisorp microtitre plates (Nunc) in PBS at a concentration which gave a significant signal when biotinylated human HIS IL1RFc was added at approximately its estimated KD for that particular IgG. Excess IgG was washed away with PBS-Tween (0.1% v/v) and the wells were blocked with non-fat dried milk in PBS (3% w/v) for 1 h. […] Non-biotinylated human HIS IL1RFc was included as a positive control. 25 μl of this dilution series was added to the blocked IgG assay plate.
(§3) 25 μl of 1.4 nM biotinylated human HIS IL1RFc was added to the assay plate. The plate was then sealed and incubated at room temperature for 2 h. Unbound antigen was removed by washing with PBS-Tween (0.1% v/v), while the remaining biotinylated human IL1RFc was detected by streptavidin-Europium3+ conjugate (DELFIA® detection, PerkinElmer). Time-resolved fluorescence was measured at 620 nm on an EnVision plate reader (PerkinElmer). Fluorescence data was plotted as europium counts. IC₅₀ values were determined using GraphPad Prism software by curve fitting using a four-parameter logistic equation (Equation 3).

Assay [2] deals with T2, recombinant human IL-1 R4 (ST2)/Fc (human, UniProt Q01638-2 19-328, limits assumed).
T2 construct: Bought; not shown: Fc of the bought fusion protein, not described
T2 sequence (looked up): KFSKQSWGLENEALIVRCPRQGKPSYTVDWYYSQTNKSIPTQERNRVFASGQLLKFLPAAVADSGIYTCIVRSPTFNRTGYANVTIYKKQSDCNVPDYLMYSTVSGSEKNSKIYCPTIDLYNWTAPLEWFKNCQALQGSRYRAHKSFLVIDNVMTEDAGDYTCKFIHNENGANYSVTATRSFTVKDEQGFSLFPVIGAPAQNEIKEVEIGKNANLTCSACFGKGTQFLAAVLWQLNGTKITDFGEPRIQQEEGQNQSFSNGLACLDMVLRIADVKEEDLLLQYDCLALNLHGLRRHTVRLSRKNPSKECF
Described as above. The protocol:
as §1, §2, §3

Assay [3] addresses T3, human recombinant IL1sRII (human, UniProt P27930 14-343).
T3 construct: also called Human IL1sRII
T3 sequence (looked up): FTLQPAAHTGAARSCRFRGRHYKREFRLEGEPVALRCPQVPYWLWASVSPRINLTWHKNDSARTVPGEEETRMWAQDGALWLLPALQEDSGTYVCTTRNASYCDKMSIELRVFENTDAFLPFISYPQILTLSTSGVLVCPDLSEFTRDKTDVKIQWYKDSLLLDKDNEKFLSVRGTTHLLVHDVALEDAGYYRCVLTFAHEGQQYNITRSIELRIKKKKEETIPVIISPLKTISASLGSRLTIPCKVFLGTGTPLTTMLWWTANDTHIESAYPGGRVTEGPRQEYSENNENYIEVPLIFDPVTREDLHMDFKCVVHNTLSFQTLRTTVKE
Described as above. How it is done:
as §1, §2, §3

The target of assay [4] is T4, human recombinant IL-1R6/IL1 R rp2/Fc (human, UniProt Q9HB29 20-335, limits assumed).
T4 construct: Bought; also called Human IL1R6Fc; not shown: Fc of the bought fusion protein, not described
T4 sequence (looked up): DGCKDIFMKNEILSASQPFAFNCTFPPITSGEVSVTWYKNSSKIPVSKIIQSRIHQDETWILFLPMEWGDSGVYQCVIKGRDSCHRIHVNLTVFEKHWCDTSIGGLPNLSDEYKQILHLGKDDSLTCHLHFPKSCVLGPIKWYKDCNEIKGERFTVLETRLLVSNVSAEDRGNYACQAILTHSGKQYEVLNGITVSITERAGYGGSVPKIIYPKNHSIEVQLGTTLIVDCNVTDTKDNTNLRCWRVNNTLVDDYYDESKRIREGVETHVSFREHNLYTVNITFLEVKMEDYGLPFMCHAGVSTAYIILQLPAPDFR
The description is as above. The protocol: as §1, §2, §3

Assay [5] addresses T5, human IL-1R1, endogenous on human cells (HeLa cells; whole blood) (human, UniProt P14778 18-569).
T5 sequence (looked up): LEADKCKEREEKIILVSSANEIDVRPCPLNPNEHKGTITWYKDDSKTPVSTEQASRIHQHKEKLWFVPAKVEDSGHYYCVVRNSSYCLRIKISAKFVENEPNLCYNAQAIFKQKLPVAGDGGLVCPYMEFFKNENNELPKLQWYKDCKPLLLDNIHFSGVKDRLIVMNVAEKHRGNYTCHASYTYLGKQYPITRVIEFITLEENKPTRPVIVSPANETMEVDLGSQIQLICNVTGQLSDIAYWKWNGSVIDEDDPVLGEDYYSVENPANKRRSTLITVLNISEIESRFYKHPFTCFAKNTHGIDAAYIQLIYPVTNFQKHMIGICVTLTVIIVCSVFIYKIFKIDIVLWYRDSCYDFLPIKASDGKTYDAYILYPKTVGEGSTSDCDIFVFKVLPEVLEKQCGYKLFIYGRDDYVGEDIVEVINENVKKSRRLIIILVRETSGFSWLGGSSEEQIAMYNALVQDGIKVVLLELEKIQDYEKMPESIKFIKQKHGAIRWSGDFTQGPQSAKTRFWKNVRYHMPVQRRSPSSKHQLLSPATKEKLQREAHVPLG
Description: cell-based or functional assay.

B1: Antibody 6GL IgG2 (antibody, V domains shown)
VH: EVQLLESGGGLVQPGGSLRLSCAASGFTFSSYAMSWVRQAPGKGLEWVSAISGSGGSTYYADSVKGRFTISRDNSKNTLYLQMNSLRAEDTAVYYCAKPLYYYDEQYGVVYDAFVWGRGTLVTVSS
VL: QSVLTQPPSVSGAPGQRVTISCTGSSSNIGAGYDVHWYQQLPGTAPKLLIYGDTHRPSGVPDRFSGSKSGTSASLAITGLQAEDEADYYCQSYDTVRLHHVFGGGTKLTVL
notes: Germlined IgG2, lambda light chain; also called Antibody 6 IgG2; 28PL GL
With B1, the binding result in assay [1], in assay [2], in assay [3] and in assay [4] was “no binding” throughout. In addition, the “IC50, inhibition of IL-1 alpha induced IL-8 release in HeLa cells (GL IgG2)” value in assay [5] was determined as 0.0031 nM. Moreover, the “IC50, inhibition of IL-1 beta induced IL-8 release in HeLa cells (GL IgG2)” value in assay [5] came out at 0.0119 nM.

B2: Antibody 10GL IgG2 (antibody, V domains shown)
VH: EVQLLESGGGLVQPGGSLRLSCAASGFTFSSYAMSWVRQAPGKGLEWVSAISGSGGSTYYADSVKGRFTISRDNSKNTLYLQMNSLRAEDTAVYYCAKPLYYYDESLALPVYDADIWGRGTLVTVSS
VL: QSVLTQPPSVSGAPGQRVTISCTGSSSNIGAGYDVHWYQQLPGTAPKLLIYGDTHRPSGVPDRFSGSKSGTSASLAITGLQAEDEADYYCQSYDTRADDAHFGGGTKLTVL
notes: Germlined IgG2, lambda light chain
B2: the binding result in assay [1], in assay [2], in assay [3] and in assay [4] was “no binding” in each case. In assay [5], the “IC50, inhibition of IL-1 alpha induced IL-8 release in HeLa cells (GL IgG2)” value worked out at 0.0138 nM. Besides, the “IC50, inhibition of IL-1 beta induced IL-8 release in HeLa cells (GL IgG2)” value in assay [5] turned out to be 0.0242 nM.

B3: Antibody 8GL IgG2 (antibody, V domains shown)
VH: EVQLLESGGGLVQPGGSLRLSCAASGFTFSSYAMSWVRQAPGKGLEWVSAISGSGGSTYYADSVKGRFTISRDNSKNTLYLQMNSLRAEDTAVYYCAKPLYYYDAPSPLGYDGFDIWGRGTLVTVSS
VL: QSVLTQPPSVSGAPGQRVTISCTGSSSNIGAGYDVHWYQQLPGTAPKLLIYGDTHRPSGVPDRFSGSKSGTSASLAITGLQAEDEADYYCQSYDTHLVAHVFGGGTKLTVL
notes: as for B2
B3: the binding result in assay [1], in assay [2], in assay [3] and in assay [4] was “no binding” throughout. For the same molecule, the “IC50, inhibition of IL-1 alpha induced IL-8 release in HeLa cells (GL IgG2)” value in assay [5] turned out to be 0.197 nM. Moreover, the “IC50, inhibition of IL-1 beta induced IL-8 release in HeLa cells (GL IgG2)” value in assay [5] was determined as 0.0419 nM.

These data come from US20100221257A1 (AstraZeneca / MedImmune, published 2010).
